Data: FireProtDB (doi:10.1002/prot.340090203)

B1: Tryptophan synthase alpha chain, P0A877 (parent)
chain: MERYESLFAQLKERKEGAFVPFVTLGDPGIEQSLKIIDTLIEAGADALELGIPFSDPLADGPTIQNATLRAFAAGVTPAQCFEMLALIRQKHPTIPIGLLMYANLVFNKGIDEFYAQCEKVGVDSVLVADVPVEESAPFRQAALRHNVAPIFICPPNADDDLLRQIASYGRGYTYLLSRAGVTGAENRAALPLNHLVAKLKEYNAAPPLQGFGISAPDQVKAAIDAGAAGAISGSAIVKIIEQHINEPEKMLAALKVFVQPMKAATRS

Variants of: B1
Conditions: Escherichia coli (strain K12), pH 9, Thermal, DSC, Sodium tetraborate 1 mM, reversible: yes, structure 1WQ5, whole UniProt chain shown

Variant	ddG of mutation (higher = less stable) (54.1 °C, EDTA 1 mM)	heat capacity change of unfolding (54.1 °C, EDTA 1 mM)	Tm	change of melting temperature, mutant - wild type (higher = more stable)	heat capacity change of unfolding	unfolding enthalpy (calorimetric)
P96A	2 kcal/mol	3.6 kcal/mol/K	47.8 °C	-6.3 °C	3.6 kcal/mol/K	113 kcal/mol
P62A	0.52 kcal/mol	4.9 kcal/mol/K	–	–	–	–
P132A	0.92 kcal/mol	4.8 kcal/mol/K	51.5 °C	-2.6 °C	4.8 kcal/mol/K	121 kcal/mol
P57A	0.04 kcal/mol	4.7 kcal/mol/K	54 °C	-0.1 °C	4.7 kcal/mol/K	121 kcal/mol
